According to PMC12038006 (Nature Communications, 2025):

Molecular target: T1, Rv1272c from Mycobacterium tuberculosis (Mycobacterium tuberculosis (Mtb) H37Rv, UniProt P9WQJ3 1-631)
T1 construct: also called subunit of Rv1273c/72c; not shown: Flag, C-terminal, kept
T1 sequence: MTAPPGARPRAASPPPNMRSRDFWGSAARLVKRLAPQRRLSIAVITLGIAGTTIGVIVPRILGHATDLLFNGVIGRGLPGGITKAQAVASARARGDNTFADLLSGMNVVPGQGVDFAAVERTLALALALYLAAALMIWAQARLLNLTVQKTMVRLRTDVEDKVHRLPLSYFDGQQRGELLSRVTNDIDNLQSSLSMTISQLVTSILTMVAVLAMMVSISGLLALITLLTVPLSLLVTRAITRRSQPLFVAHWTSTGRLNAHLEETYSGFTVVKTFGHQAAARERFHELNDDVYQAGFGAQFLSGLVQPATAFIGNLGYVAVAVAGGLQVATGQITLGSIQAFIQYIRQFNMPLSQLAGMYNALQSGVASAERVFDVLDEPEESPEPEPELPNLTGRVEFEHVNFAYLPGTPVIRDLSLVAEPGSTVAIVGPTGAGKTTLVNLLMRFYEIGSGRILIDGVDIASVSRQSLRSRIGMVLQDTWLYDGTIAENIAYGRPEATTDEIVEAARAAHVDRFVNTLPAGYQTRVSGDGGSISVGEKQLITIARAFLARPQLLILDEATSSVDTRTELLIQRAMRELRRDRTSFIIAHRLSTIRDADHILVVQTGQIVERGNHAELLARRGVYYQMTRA
Assay: SEC
Details: both partners purified

B1: Rv1273c from Mycobacterium tuberculosis (natural protein)
chain: MLLALLRQHIRPYRRLVAMLMMLQLVSTLASLYLPTVNAAIVDDGVAKGDTATIVRLGAVMLGVTGLQVLCAIGAVYLGSRTGAGFGRDLRSAMFEHIITFSERETARFGAPTLLTRSTNDVRQILFLVQMTATVLVTAPIMCVGGIIMAIHQEAALTWLLLVSVPILAVANYWIISHMLPLFRRMQSLIDGINRVMRDQLSGVRVVRAFTREGYERDKFAQANTALSNAALSAGNWQALMLPVTTLTINASSVALIWFGGLRIDSGQMQVGSLIAFLSYFAQILMAVLMATMTLAVLPRASVCAERITEVLSTPAALGNPDNPKFPTDGVTGVVRLAGATFTYPGADCPVLQDISLTARPGTTTAIVGSTGSGKSTLVSLICRLYDVTAGAVLVDGIDVREYHTERLWSAIGLVPQRSYLFSGTVADNLRYGGGPDQVVTEQEMWEALRVAAADGFVQTDGLQTRVAQGGVNFSGGQRQRLAIARAVIRRPAIYVFDDAFSALDVHTDAKVHASLRQVSGDATIIVVTQRISNAAQADQVIVVDNGKIVGTGTHETLLADCPTYAEFAASQSLSATVGGVG
notes: also called subunit of Rv1273c/72c
- stoichiometry N: 1
